This note sets out measurements from the nanobody polyreactivity screen of Harvey et al. (2022).

The series can be described thus: yeast display, Sf9 membrane polyspecificity reagent, FACS + sequencing; frameworks hold sequencing errors. The procedure, abridged: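 Polyreactivity labels are assigned by the sorting gate from which each nanobody was recovered. The gates were low and high (top ~1%), set on anti-HA fluorescence for expression and streptavidin fluorescence for reagent binding. Before sorting, galactose-induced (36–48 hours) yeast display cells were stained for 1 hour at 4 °C with 10% biotinylated, detergent-solubilized Sf9 membrane reagent.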
Regarding “QVQLVESGGCLVQAGGSLRLSCAASGIIFYQNSMGWYRQAPGKERELVAAISRSGGTTYYADSVKGRFTISRDNAKNTVYLLMNSVNPEVTAVYYCAAVGTGSGYYYWGQGTQVTVSS”, the “polyreactivity (PSR sort gate)” value is “high polyreactivity”.

With “QVQLVESGGCLVQAGGSLRLSCAASGITLRYYAMGWYRQAPGKERELDAAISSGGRTYYADSVKGRFTISRDNATKTVYLPLNSLKPEETAVYYCNVVWSVTYDYWGHGTQVTVSS”, the “polyreactivity (PSR sort gate)” value is listed as “high polyreactivity”.

Consider “QVQLVESGGCLVQAGGSLRLSCAASGLTFKWNTMGWYRQAPGKESELVAAISWRVVSTYYADSVKGRFTISRDNAKNTVYLQMNSLKPEDTAVYYDYWGQGTQVTVSS”, for which the “polyreactivity (PSR sort gate)” value was “low polyreactivity”.

In the case of “QVQLVESGGCLVQAGGSLRLSCAASGLTFSWYAMGWYRQAPGKERELVAAISTRGGRTYYADSVKGRFTISRDNAKNTVYLQMNSLKPEDTAVYYCAAGVSYRYLWLVDYWGQGTQVTVSS”, the “polyreactivity (PSR sort gate)” value is on record as “high polyreactivity”.

Take “QVQLVESGGCLVQAGGSLRLSCAASGNTFSTYTMGWYRQAPGKERELVAALTRSRGRTYYADSVKGRFTISRDTAKNTVYLQMNSLKPEDTAVYYCNAYTADLDDYWGQGNQVTVSS”: the “polyreactivity (PSR sort gate)” value is listed as “high polyreactivity”.

With “QVQLVESGGCLVQAGGSLRLSCAASGRIFDHYAMGWYRQAPGKERELVAAITRSGGITYYADSVKGRFTISRDNAKNTVYLQMNSLKPDDTAVFYCAAYLKGNYYLGIARYVLYYWGQGTQVTVSS”, the “polyreactivity (PSR sort gate)” value is “low polyreactivity”.

With “QVQLVESGGCLVQAGGSLRLSCAASGRIFFYYTLGWYRQAPGKERELVAAINSTGSTNYADSVKGRFTISRDNAKNTVYLQMKSLKPEDTAVYYCNAGTRYIFLYPPFLGAAFDYWGQGTQVTVSS”, the “polyreactivity (PSR sort gate)” value was “low polyreactivity”.

For the sequence “QVQLVESGGCLVQAGGSLRLSCAASGRIFQGYAMAWYRQAPGKEREFVAAITLSGGSTYYADSVKGRFTISRDNAKNTVYLQMNSLKPEDTAVYYCNAYYPDEPSLDDYWGQGTQVTVSS”, the “polyreactivity (PSR sort gate)” value is “low polyreactivity”.

As for “QVQLVESGGCLVQAGGSLRLSCAASGRIFVPNAMGWYRQAPGKERELVAAINWGGGSTYYADSVKGRFTISRDNAKNTVYLQMNSLKPEDTAVYYCAADHPYTMGVLPNQQFDYWGQGTQVTVSS”, the “polyreactivity (PSR sort gate)” value is reported as “low polyreactivity”.

Consider “QVQLVESGGCLVQAGGSLRLSCAASGRSFDKYTMGWYRQAPGKERELVAAISTRGGSTYYADSVKGRFTISRDNAKNTVYLQMNSLKPEDTAVYYCATVPRPKAYDYWGQGTQVTVSS”, for which the “polyreactivity (PSR sort gate)” value is “high polyreactivity”.

Consider “QVQLVESGGCLVQAGGSLRLSCAASGRTFRSNAMGWYRQAPGKERELVAAITIGGSTTYADSVKGRFTISRDNAKNTVYLQMISLKREDSAVYYCKARDYYPYDYWGKGTQVTVSS”, for which the “polyreactivity (PSR sort gate)” value was “high polyreactivity”.

Turning to “QVQLVESGGCLVQAGGSLRLSCAASGRTFRYYAMGWYRQAPGRERELVAAIRRAGSTTYADSVKGRFTISRDNAKNTVYLQMNSLKPEDTAVYYCIARRYGYGYALDYWGQGTQVTVSS”, the “polyreactivity (PSR sort gate)” value is on record as “high polyreactivity”.

Regarding “QVQLVESGGCLVQAGGSLRLSCAASGRTFRYYAMGWYRQAPGTERELVATITGSGGSTYYADSVKGRFTISRDNAKNTVYLQMTSLKPEDTAVYYCNARKVRYPYRWYDYWGQGTQVTVSS”, the “polyreactivity (PSR sort gate)” value is given as “high polyreactivity”.

Regarding “QVQLVESGGCLVQAGGSLRLSCAASGSIFAAYTMGWYRQAPGKERELVAAISVSTVSTYYADSVKGRFTISRDNAKNTVYLQMNSLKPEDTAVYYCNADATDSYPEKDEHDSWGQGTQVTVSS”, the “polyreactivity (PSR sort gate)” value is given as “low polyreactivity”.

“QVQLVESGGCLVQAGGSLRLSCAASGSIFGYYAMGWYRQAPGKERELVAAISYSGGSTYYADSVKGRFTISRDTAKNTVYLQMNSLKPEDTAVYYCNAVTSWAYWRGPRYDYWGQGTQVTVSS”: the “polyreactivity (PSR sort gate)” value is “high polyreactivity”.

Turning to “QVQLVESGGCLVQAGGSLRLSCAASGSIFHPYGMGWYRQAPGKERELVAAITSSGGDTYYADSVKGRFTISRDNAKNTVYLQMNSLKPEDTAVYYCAATGLPGYYAYDYWGQGTQVTVSS”, the “polyreactivity (PSR sort gate)” value was “low polyreactivity”.

For the sequence “QVQLVESGGCLVQAGGSLRLSCAASGSIFIWYAMGWYRQAPGKERELVASITYSAGRTYYADSVKGRFTISRDNAKNTVYLQMNSLKPEDTAVYYCAADSPYVYTLDSYGEGDYWGQGTQVTVSS”, the “polyreactivity (PSR sort gate)” value was “low polyreactivity”.

On to “QVQLVESGGCLVQAGGSLRLSCAASGSIFKGYAMGWSRQAPGKERELVAAITIDGSTYYADSVKGRFTISRDNAKNTVYLQMNSLKPEDTAVYYCAAVYLWYGSWPLHFAAYDYWGQGTQVTVSS”, for which the “polyreactivity (PSR sort gate)” value was “low polyreactivity”.

Take “QVQLVESGGCLVQAGGSLRLSCAASGSIFLFNAMGWYRQAPGKDRELVATISWSGVVLRTYADSVKGRFTISRDNAKNTVYLQMNSLKPEDTAVYNCAARDLAFFTEYGYWGQGTQVSVSS”: the “polyreactivity (PSR sort gate)” value was “high polyreactivity”.

With “QVQLVESGGCLVQAGGSLRLSCAASGSIFSKNTMGWSRQAPGKDRELVATISIGGGSTYYADSVKGRFTISRDNAKNTVYLQMNSLKPADSAVYYCNASLRRPFSLYYYWGQGTQVTVSS”, the “polyreactivity (PSR sort gate)” value is recorded as “high polyreactivity”.

Take “QVQLVESGGCLVQAGGSLRLSCAASGSIFTTYAMGWYRQAPGKERELVAAISVSGSSTYYADSVKGRFTISRDNAKNTVYLQMNSLKPEDTAVYYCNKAFRSVRPRRRYDYWGQGTQVTVSS”: the “polyreactivity (PSR sort gate)” value is “low polyreactivity”.

“QVQLVESGGCLVQAGGSLRLSCAASGSILRYYAMGWYRQAPGKERELVAAISRGGSTYYADSVKGRFTISRDNAKNTVYLQMNSLKPEDTAVYYCARLPLRYYFGYDYWGQGTQVTVSS”: the “polyreactivity (PSR sort gate)” value is given as “high polyreactivity”.

For the sequence “QVQLVESGGCLVQAGGSLRLSCAASGSTFPIYAMGWYRQAPGKERELVARITWNGGRTYYADSVKGRFTISRDNAKNTVYLQMNSLKPEDTAVYYCAAGKIGSYHYDYWGQGTQVTVSS”, the “polyreactivity (PSR sort gate)” value was “high polyreactivity”.

Regarding “QVQLVESGGCLVQAGGSLRLSCAASGSTFTGYAMGWYRQAPGKEREFVATITKRGGRTYYADSVKGRFTISRDHAKNTVYLQMNSLKPEDTAVYYCARDQGKLVVPYDYWGQGTQVTVSS”, the “polyreactivity (PSR sort gate)” value is listed as “high polyreactivity”.

Take “QVQLVESGGCLVQAGGSLRLSCAASGSTFTLYAMGWYRPAPGKERELVAAIRRGGSTNYADSVKGRFTISRDNAKNTDYLQMNSLKPEDTAVYYCAADSYTSRSRYSGSGGYDYGGQGTQVTVSS”: the “polyreactivity (PSR sort gate)” value is recorded as “low polyreactivity”.

Consider “QVQLVESGGCLVQAGGSLRLSCAASGSTFVYYAMGWYRQAPGKESELVAAITSGGSTYYADSVKGRFTISRDNAKNTVYLQMNSLKPEDTAVYYCATDYTWFGYRYDYWGQGTQVTVSS”, for which the “polyreactivity (PSR sort gate)” value is on record as “low polyreactivity”.

“QVQLVESGGCLVQAGGSLRLSCAASGSTLYRYVMGWYRPAPGKESELVAAISWSGTNTYADSVKGRFTISRDNAKNTVYLQMNSLKPEDTAVYYSAAAGPGYNWGYRVYAIYDYWGQGSQVTVSS”: the “polyreactivity (PSR sort gate)” value is on record as “high polyreactivity”.

With “QVQLVESGGCLVQAGGSLRLSCAASGSTSDIYARGWYSPAPGKEREFVAARSLTGGTTYYAASVKGRFTISCDNAKNTVYLQMNSLKPEDTAVYYCNADVGWWGYDDDYWGQGTQVTVSS”, the “polyreactivity (PSR sort gate)” value is listed as “high polyreactivity”.

With “QVQLVESGGCLVQAGGSLRLSCAASGYIFDHYAMGCYRQAPGKERELVAAISRSAGSTYYADSVKGRFTISRDNAKNTVYLQMNSLKPEDTAVYYCNAVVAVRSWRKYEYWGQGTQVTVSS”, the “polyreactivity (PSR sort gate)” value is “high polyreactivity”.

“QVQLVESGGCLVQAGGSLRLSCAASGYTFRYNAMGWYRQAHGKERELVATITRGGSTNYADSVKGRFTISRDNEKNTVYLLMYSLKPEDPAVYYCNKEAAPLGFVPSYYGRDYWRQGTQVTVSS”: the “polyreactivity (PSR sort gate)” value is recorded as “low polyreactivity”.
